# Test results taken from paper PMC5606208 (Nature, 2017).
# Legend:
# AUC = target: the molecule itself; assay: AUC
# SEC-MALS = target: the molecule itself; assay: SEC-MALS
Protein,binding result (AUC),stoichiometry N (SEC-MALS)
"PhosNH-α/βchimera (N-terminus and Hinge from HP1α with the Chromodomain, Chromoshadow domain and CTE from HP1β, phosphorylated) (other, human, phosphorylated NTE (fully phosphorylated, sites not given)) GKKTKRTADSSSSEDEEEYVVEKVLDRRVVKGKVEYLLKWKGFSDEDNTWEPEENLDCPDLISEFMKKYKKMKEGENNKPREKSESNKRKSNFSNSADDIKSKKKREQSNDIARGFARGLEPERIIGATDSSGELMFLMKWKNSDEADLVPAKEANVKCPQVVISFYEERLTWHSYPSEDDDKKDDKN",binds,
"nPhos-HP1α (HP1α S92A, S95A, S97A co-expressed with CKII, phosphorylated only in the N-terminal extension) (natural protein, human, UniProt P45973 1-191, looked up, phosphorylated at Ser11, Ser12, Ser13, Ser14 (NTE); 8 phosphates per dimer by native MS) MGKKTKRTADSSSSEDEEEYVVEKVLDRRVVKGQVEYLLKWKGFSEEHNTWEPEKNLDCPELISEFMKKYKKMKEGENNKPREKSESNKRKANFANAADDIKSKKKREQSNDIARGFERGLEPEKIIGATDSCGDLMFLMKWKDTDEADLVLAKEANVKCPQIVIAFYEERLTWHAYPEDAENKEKETAKS",,2
